Results taken from PMC5187861.

Tests used:
Assay in all cases: yeast two-hybrid, quantitative β-galactosidase assay
[1] = target: HK1a receiver domain (HK1a-RD), LexA-based two-hybrid bait; settings: HK1a-RD as bait, HPt as prey, mean of at least four independent assays in triplicate, standard error bars, read off a plot
[2] = target: HK1b cytoplasmic part (HK1b-CP), LexA-based two-hybrid fusion; settings: HK1b-CP as bait, HPt as prey, standard error bars, read off a plot
[3] = target: HK1b receiver domain (HK1b-RD), LexA-based two-hybrid bait; settings: HK1b-RD as bait, HPt as prey, standard error bars, read off a plot
[4] = target: HK1a cytoplasmic part (HK1a-CP), LexA-based two-hybrid bait; settings: HK1a-CP as bait, HPt as prey, mean of at least four independent assays in triplicate, standard error bars, read off a plot

| response (β-Galactosidase units) ([1]; parent: est. 120) | response (β-Galactosidase units) ([2]; parent: est. 11) | response (β-Galactosidase units) ([3]; parent: est. 240) | response (β-Galactosidase units) ([4]; parent: est. 71) | response (β-Galactosidase units) ([1]; parent: est. 19) | response (β-Galactosidase units) ([2]; parent: est. 2.3) | response (β-Galactosidase units) ([3]; parent: est. 11) | response (β-Galactosidase units) ([4]; parent: est. 4.2) | Substance |
| --- | --- | --- | --- | --- | --- | --- | --- | --- |
| 95 | 7 | 210 | 32 | – | – | – | – | HPt2, histidine-containing phosphotransfer protein 2 (two-hybrid prey) L32K; K73R; A76S |
| – | – | – | – | 33 | 3.7 | 16 | 5.5 | HPt1, histidine-containing phosphotransfer protein 1 (two-hybrid prey) K33L; R74K; S77A |
